Test results from patent US20190169692.

Target: YB-1 protein, P67809
Sequence (P67809 whole entry, looked up): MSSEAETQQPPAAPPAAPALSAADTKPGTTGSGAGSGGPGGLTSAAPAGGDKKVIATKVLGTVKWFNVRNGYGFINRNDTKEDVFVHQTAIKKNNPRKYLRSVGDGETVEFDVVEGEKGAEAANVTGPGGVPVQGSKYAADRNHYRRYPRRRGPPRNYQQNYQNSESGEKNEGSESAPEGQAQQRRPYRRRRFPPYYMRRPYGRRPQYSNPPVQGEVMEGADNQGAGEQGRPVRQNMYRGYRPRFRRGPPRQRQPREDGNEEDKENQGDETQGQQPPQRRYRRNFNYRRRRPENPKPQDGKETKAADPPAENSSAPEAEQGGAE

B1: serine threonine kinase 32C (STK32C) (protein)
chain: MRSGAERRGSSAAASPGSPPPGRARPAGSDAPSALPPPAAGQPRARDSGDVRSQPRPLFQWSKWKKRMGSSMSAATARRPVFDDKEDVNFDHFQILRAIGKGSFGKVCIVQKRDTEKMYAMKYMNKQQCIERDEVRNVFRELEILQEIEHVFLVNLWYSFQDEEDMFMVVDLLLGGDLRYHLQQNVQFSEDTVRLYICEMALALDYLRGQHIIHRDVKPDNILLDERGHAHLTDFNIATIIKDGERATALAGTKPYMAPEIFHSFVNGGTGYSFEVDWWSVGVMAYELLRGWRPYDIHSSNAVESLVQLFSTVSVQYVPTWSKEMVALLRKLLTVNPEHRLSSLQDVQAAPALAGVLWDHLSEKRVEPGFVPNKGRLHCDPTFELEEMILESRPLHKKKKRLAKNKSRDNSRDSSQSENDYLQDCLDAIQQDFVIFNREKLKRSQDLPREPLPAPESRDAAEPVEDEAERSALPMCGPICPSAGSG
- in vitro kinase assay with P32-labeled ATP (YB-1 with serine 165 / serine 167 mutated to alanine as substrate, STK32C as enzyme source): it was confirmed that the serine 167 of the YB-1 substrate protein was phosphorylated by SKT32C
